For 79 sequences, switch fluorescence ratio results are on record in the supplement of paper PMC10126150.

± gives the standard deviation of the averaged measurements.

The data set deals with ATP. The experiment in a line: switch fluorescence ratio, 500 uM ATP over buffer (Cy3 cluster intensity, sum of 5 cycles each) (fold (ratio)); higher = stronger signal-on switching upon ATP binding; sequences stand for … in TCGTCGGCAGCGTCAGATGTGTATAAGAGACAGTTTTTTTTTTTTTTTTTTTTTTTTT…TC. The conditions noted are these: aptamer strand: ATP DNA aptamer (quencher-CACCTGGGGGAGTATTGCGGAGGAAGG + anchor), 100 nM annealed; ATP concentration: 500 uM. A digest of the protocol: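 Switching-strand clusters labelled with Cy3 on a modified Illumina MiSeq flow-cell were annealed to 100 nM quencher-labelled ATP aptamer, imaged in selection buffer, and re-imaged after 15 min with 500 uM ATP at 22 °C. This was done over five cycles with NaOH stripping and re-annealing in between. The fluorescence ratio is summed target-cycle over summed buffer-cycle Cy3 intensity per cluster, averaged per switch-domain sequence, excluding clusters outside 100-1000 RFU.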
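Note: ATP exposure 15 min at 22 °C before imaging.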

As to CGTAAGGGTT, the switch fluorescence ratio came out at 1.008 ± 0.0063. The result for AAAGTGTAAA reads 1.08 ± 0.058; that for CACAATTTTT, 0.991 ± 0.025; that for AGGAGGCATG, 0.986 ± 0.043. The result for ACTGGGTGGA reads 1.02 ± 0.034.

On to TTTGGGGCT, for which the switch fluorescence ratio came out at 0.957 ± 0.039. As for CGGGTTGGGA, the switch fluorescence ratio turned out to be 1.007 ± 0.0042. As for AGGGTTACTG, the switch fluorescence ratio worked out at 1.04 ± 0.068. The result for GTTTATTATA reads 1 ± 0.011; that for TGGAAACCGG, 1.009 ± 0.0055.

Turning to TTCCATCACA, the switch fluorescence ratio was 1.01 ± 0.021. The result for ACCGGCACGG reads 0.9679 ± 0.0037; that for TGTCAGGGTT, 1 ± 0.014; that for ACGAAAAGTG, 1.05 ± 0.072. The result for CCCGGGTCTG reads 1.04 ± 0.035; that for GACTAAGTTT, 1.018 ± 0.0076. Take TTAGCGTTTT: the switch fluorescence ratio turned out to be 1.16 ± 0.25. The result for CTGCGGGGGG reads 0.999 ± 0.015; that for ATAAAAATTT, 1 ± 0.024. The result for TTTAACAGGT reads 1.03 ± 0.023. The result for TTTAGTTTGC reads 0.992 ± 0.024; that for AGGGACGAGT, 1.07 ± 0.11. Consider AACGTTAATT, for which the switch fluorescence ratio amounted to 1.025 ± 0.0081. For GTTTTTGTGA, the switch fluorescence ratio is 0.9693 ± 0.0079. Regarding CGGTATTCTT, the switch fluorescence ratio is 0.9883 ± 0.0068. With AATAGAATTA, the switch fluorescence ratio stood at 1 ± 0.018. As to AGGGATACTG, the switch fluorescence ratio is 1.072 ± 0.0048. In the case of GCATAGTCTG, the switch fluorescence ratio was found to be 1.038 ± 0.0042.

As to TTGGTCTTTT, the switch fluorescence ratio was found to be 0.976 ± 0.012.

For the sequence CCGGGGGACC, the switch fluorescence ratio stood at 1.04 ± 0.021. The result for CTTGTAATGT reads 1.02 ± 0.011. The result for TCGTCGTAGC reads 1.05 ± 0.072.

Take TACCAATAAG: the switch fluorescence ratio came out at 1.03 ± 0.044. The result for AGAAAGAGGG reads 1.002 ± 0.0013. The result for TCCAGGACTA reads 1.02 ± 0.015.

For TTTATGATGA, the switch fluorescence ratio worked out at 0.971 ± 0.016. For GGGGGGGCAT, the switch fluorescence ratio came to 1.02 ± 0.031. For the sequence AAAAGGTAAA, the switch fluorescence ratio came to 1.02 ± 0.021. The result for CTCAGAGAAG reads 1.02 ± 0.058. The result for GTCGGGAAGG reads 1.013 ± 0.0026; that for GTGATAGATT, 1 ± 0.013; that for ACATGGGTGG, 0.962 ± 0.051. The result for CTGGGCAGGG reads 1.02 ± 0.055. As to GCTGGGGCAG, the switch fluorescence ratio stood at 1.016 ± 0.01.

As for GTTTATTTTT, the switch fluorescence ratio was found to be 0.997 ± 0.023.

On to AGTCGGAACG, for which the switch fluorescence ratio was 0.963 ± 0.015. Take TGAAGGGTGA: the switch fluorescence ratio turned out to be 1.007 ± 0.0094. ATCGAGGCAC: the switch fluorescence ratio is 1.056 ± 0.0061. The result for GGGGTATCAT reads 0.983 ± 0.03; that for ATTATTGGGA, 1 ± 0.046; that for GAAGGAAGAG, 1.03 ± 0.025.

Consider TTTTTCTTTT, for which the switch fluorescence ratio turned out to be 0.993 ± 0.029. The result for TTAACATACG reads 1.38 ± 0.042. The result for CGGGCGATAA reads 1.45 ± 0.0045; that for CGTCGGGGAT, 1 ± 0.037; that for TATGGGTTAA, 1.01 ± 0.022. As for TCGGTCATGG, the switch fluorescence ratio came to 0.993 ± 0.023. The result for CGGTTAACCA reads 1.02 ± 0.021. The result for TGGAATGTTG reads 1.02 ± 0.0078. The result for ACCGGTTACG reads 1.027 ± 0.0055.

Take GAAGTAGGGG: the switch fluorescence ratio came to 0.977 ± 0.033. The result for GGGAGGGTAT reads 1.01 ± 0.036; that for GCATTTATGG, 0.949 ± 0.022; that for TCGTCCTTTT, 0.976 ± 0.03. The result for GTTTTCCGGA reads 0.996 ± 0.05; that for AGTGCCCGTA, 1.02 ± 0.063. The result for ATTAGGTTGA reads 0.975 ± 0.0047; that for GATTCACGTT, 1.052 ± 0.0043.

Regarding CTGTTGGGTC, the switch fluorescence ratio is 0.97927 ± 0.00013. The result for TAAGAGGGCT reads 0.996 ± 0.022. Consider TTTTCCAGGT, for which the switch fluorescence ratio is 1.83 ± 0.42. The result for GGGTATTGAT reads 1.01 ± 0.042; that for TTTGACTATG, 0.999 ± 0.022. The result for TAAGTTGGTA reads 0.9521 ± 0.0054; that for TGCTTTTTAA, 1.03 ± 0.063. In the case of CTGGGGGTAA, the switch fluorescence ratio turned out to be 0.992 ± 0.02. The result for CGGCTTACTT reads 1.07 ± 0.011; that for CGAGTATGGG, 0.9859 ± 0.0011; that for TTTCTGGGTG, 1.13 ± 0.038.
